To fix the notation:
B1: TcdB2 (TcB) of the TcdB2-TccC3 cocoon (natural protein)
chain: MQNSQDFSITELSLPKGGGAITGMGEALTPTGPDGMAALSLPLPISAGRGYAPAFTLNYNSGAGNSPFGLGWDCNVMTIRRRTHFGVPHYDETDTFLGPEGEVLVVADQPRDESTLQGINLGATFTVTGYRSRLESHFSRLEYWQPKTTGKTDFWLIYSPDGQVHLLGKSPQARISNPSQTTQTAQWLLEASVSSRGEQIYYQYRAEDDTGCEADEITHHLQATAQRYLHIVYYGNRTASETLPGLDGSAPSQADWLFYLVFDYGERSNNLKTPPAFSTTGSWLCRQDRFSRYEYGFEIRTRRLCRQVLMYHHLQALDSKITEHNGPTLVSRLILNYDESAIASTLVFVRRVGHEQDGNVVTLPPLELAYQDFSPRHHAHWQPMDVLANFNAIQRWQLVDLKGEGLPGLLYQDKGAWWYRSAQRLGEIGSDAVTWEKMQPLSVIPSLQSNASLVDINGDGQLDWVITGPGLRGYHSQRPDGSWTRFTPLNALPVEYTHPRAQLADLMGAGLSDLVLIGPKSVRLYANTRDGFAKGKDVVQSGDITLPVPGADPRKLVAFSDVLGSGQAHLVEVSATKVTCWPNLGRGRFGQPITLPGFSQPATEFNPAQVYLADLDGSGPTDLIYVHTNRLDIFLNKSGNGFAEPVTLRFPEGLRFDHTCQLQMADVQGLGVASLILSVPHMSPHHWRCDLTNMKPWLLNEMNNNMGVHHTLRYRSSSQFWLDEKAAALTTGQTPVCYLPFPIHTLWQTETEDEISGNKLVTTLRYARGAWDGREREFRGFGYVEQTDSHQLAQGNAPERTPPALTKNWYATGLPVIDNALSTEYWRDDQAFAGFSPRFTTWQDNKDVPLTPEDDNSRYWFNRALKGQLLRSELYGLDDSTNKHVPYTVTEFRSQVRRLQHTDSRYPVLWSSVVESRNYHYERIASDPQCSQNITLSSDRFGQPLKQLSVQYPRRQQPAINLYPDTLPDKLLANSYDDQQRQLRLTYQQSSWHHLTNNTVRVLGLPDSTRSDIFTYGAENVPAGGLNLELLSDKNSLIADDKPREYLGQQKTAYTDGQNTTPLQTPTRQALIAFTETTVFNQSTLSAFNGSIPSDKLSTTLEQAGYQQTNYLFPRTGEDKVWVAHHGYTDYGTAAQFWRPQKQSNTQLTGKITLIWDANYCVVVQTRDAAGLTTSAKYDWRFLTPVQLTDINDNQHLITLDALGRPITLRFWGTENGKMTGYSSPEKASFSPPSDVNAAIELKKPLPVAQCQVYAPESWMPVLSQKTFNRLAEQDWQKLYNARIITEDGRICTLAYRRWVQSQKAIPQLISLLNNGPRLPPHSLTLTTDRYDHDPEQQIRQQVVFSDGFGRLLQAAARHEAGMARQRNEDGSLIINVQHTENRWAVTGRTEYDNKGQPIRTYQPYFLNDWRYVSNDSARQEKEAYADTHVYDPIGREIKVITAKGWFRRTLFTPWFTVNEDENDTAAEVKKVKM

The target in assay [1] is Photorhabdus luminescens TcdA1 (TcA) (Photorhabdus luminescens, UniProt Q9RN43 1-2516). Put plainly: cryo-EM structure. As to conditions: both partners purified.
For assay [2], the target named is B1. Put plainly: crystal structure. To be noted: both partners purified.

Consider B1, for which the binding result in assay [1] is recorded as “binds”.

B2: TccC3 (TcC) of the TcdB2-TccC3 cocoon, without the HVR (domain or fragment)
chain: MKNIDPKLYQKTPTVSVYDNRGLIIRNIDFHRTTANGDPDTRITRHQYDIHGHLNQSIDPRLYEAKQTNNTIKPNFLWQYDLTGNPLCTESIDAGRTVTLNDIEGRPLLTVTATGVIQTRQYETSSLPGRLLSVAEQTPEEKTSRITERLIWAGNTEAEKDHNLAGQCVRHYDTAGVTRLESLSLTGTVLSQSSQLLIDTQEANWTGDNETVWQNMLADDIYTTLSTFDATGALLTQTDAKGNIQRLAYDVAGQLNGSWLTLKGQTEQVIIKSLTYSAAGQKLREEHGNDVITEYSYEPETQRLIGIKTRRPSDTKVLQDLRYEYDPVGNVISIRNDAEATRFWHNQKVMPENTYTYDSLYQLISATGREMANIGQQSHQFPSPALPSDNNTYTNYTRTYTYDRGGNLTKIQHSSPATQNNYTTNITVSNRSNRAVLSTLTEDPAQVDALFDAGGHQNTLISGQNLNWNTRGELQQVTLVKRDKGANDDREWYRYSGDGRRMLKINEQQASNNAQTQRVTYLPNLELRLTQNSTATTEDLQVITVGEAGRAQVRVLHWESGKPEDIDNNQLRYSYDNLIGSSQLELDSEGQIISEEEYYPYGGTALWAARNQTEASYKTIRYSGKERDATGLYYYGYRYYQPWIGRWLSSDPAGTIDGLNLYRMVRNNPVTLLDPDGL
Consider B2, for which the binding result in assay [2] is “binds”.

These data come from PMC6868009 (Nature Communications, 2019).
